{
  "source": "patent US12099068B2",
  "about": "“Biomarkers for graft-versus-host disease” (Incyte Corporation, priority 2018, dated 2024)",
  "data": [
    {"system": "plasma proteins", "assay": "Plasma proteins modulated between baseline and day 28 in responders (CR, VGPR, PR; n = 19), Example 6 (Table 13)", "assay_type": "in vivo, human", "settings": "plasma protein (OLINK NPX); responders (CR, VGPR, PR; n = 19); itacitinib 200 mg or 300 mg QD with corticosteroids; day 28 vs baseline", "procedure,_shortened": "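Plasma at baseline/screening and day 28 profiled for >1000 proteins by OLINK proximity extension assay, reported as NPX (log2). Steroid-naive and steroid-refractory patients pooled. Paired and unpaired t tests, ANOVA and Pearson correlation applied; significance at P<0.05.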", "values": [
      {"molecule": "CEACAM8 (protein, UniProt P31997 35-320, looked up) Cell adhesion molecule CEACAM8: QLTIEAVPSNAAEGKEVLLLVHNLPQDPRGYNWYKGETVDANRRIIGYVISNQQITPGPAYSNRETIYPNASLLMRNVTRNDTGSYTLQVIKLNLMSEEVTGQFSVHPETPKPSISSNNSNPVEDKDAVAFTCEPETQNTTYLWWVNGQSLPVSPRLQLSNGNRTLTLLSVTRNDVGPYECEIQNPASANFSDPVTLNVLYGPDAPTISPSDTYYHAGVNLNLSCHAASNPPSQYSWSVNGTFQQYTQKLFIPNITTKNSGSYACHTTNSATGRNRTTVRMITVSD", "Fold Change, Decreased Expression from Baseline to Day 28": "−1.6177"},
      {"molecule": "FASLG (protein, UniProt P48023 130-281, looked up) Tumor necrosis factor ligand …: QIGHPSPPPEKKELRKVAHLTGKSNSRSMPLEWEDTYGIVLLSGVKYKKGGLVINETGLYFVYSKVYFRGQSCNNLPLSHKVYMRNSKYPQDLVMMEGKMMSYCTTGQMWARSSYLGAVFNLTSADHLYVNVSELSLVNFEESQTFFGLYKL", "Fold Change, Decreased Expression from Baseline to Day 28": "−1.3614"},
      {"molecule": "PRDX3 (protein, UniProt P30048 62-256, looked up) Thioredoxin-dependent …: APAVTQHAPYFKGTAVVNGEFKDLSLDDFKGKYLVLFFYPLDFTFVCPTEIVAFSDKANEFHDVNCEVVAVSVDSHFSHLAWINTPRKNGGLGHMNIALLSDLTKQISRDYGVLLEGSGLALRGLFIIDPNGVIKHLSVNDLPVGRSVEETLRLVKAFQYVETHGEVCPANWTPDSPTIKPSPAASKEYFQKVNQ", "Fold Change, Decreased Expression from Baseline to Day 28": "−1.199"},
      {"molecule": "FCRL1 (protein, UniProt Q96LA6 17-429, looked up) Fc receptor-like protein 1: AELFLIASPSHPTEGSPVTLTCKMPFLQSSDAQFQFCFFRDTRALGPGWSSSPKLQIAAMWKEDTGSYWCEAQTMASKVLRSRRSQINVHRVPVADVSLETQPPGGQVMEGDRLVLICSVAMGTGDITFLWYKGAVGLNLQSKTQRSLTAEYEIPSVRESDAEQYYCVAENGYGPSPSGLVSITVRIPVSRPILMLRAPRAQAAVEDVLELHCEALRGSPPILYWFYHEDITLGSRSAPSGGGASFNLSLTEEHSGNYSCEANNGLGAQRSEAVTLNFTVPTGARSNHLTSGVIEGLLSTLGPATVALLFCYGLKRKIGRRSARDPLRSLPSPLPQEFTYLNSPTPGQLQPIYENVNVVSGDEVYSLAYYNQPEQESVAAETLGTHMEDKVSLDIYSRLRKANITDVDYEDAM", "Fold Change, Decreased Expression from Baseline to Day 28": "−1.3733"},
      {"molecule": "FCRL6 (protein, UniProt Q6DN72 20-434, looked up) Fc receptor-like protein 6: LYLQAWPNPVFEGDALTLRCQGWKNTPLSQVKFYRDGKFLHFSKENQTLSMGAATVQSRGQYSCSGQVMYIPQTFTQTSETAMVQVQELFPPPVLSAIPSPEPREGSLVTLRCQTKLHPLRSALRLLFSFHKDGHTLQDRGPHPELCIPGAKEGDSGLYWCEVAPEGGQVQKQSPQLEVRVQAPVSRPVLTLHHGPADPAVGDMVQLLCEAQRGSPPILYSFYLDEKIVGNHSAPCGGTTSLLFPVKSEQDAGNYSCEAENSVSRERSEPKKLSLKGSQVLFTPASNWLVPWLPASLLGLMVIAAALLVYVRSWRKAGPLPSQIPPTAPGGEQCPLYANVHHQKGKDEGVVYSVVHRTSKRSEARSAEFTVGRKDSSIICAEVRCLQPSEVSSTEVNMRSRTLQEPLSDCEEVLC", "Fold Change, Decreased Expression from Baseline to Day 28": "−1.3556"},
      {"molecule": "EGF (protein, UniProt P01133 23-1207, looked up, Pro-epidermal growth factor) Pro-epidermal growth factor: PQHWSCPEGTLAGNGNSTCVGPAPFLIFSHGNSIFRIDTEGTNYEQLVVDAGVSVIMDFHYNEKRIYWVDLERQLLQRVFLNGSRQERVCNIEKNVSGMAINWINEEVIWSNQQEGIITVTDMKGNNSHILLSALKYPANVAVDPVERFIFWSSEVAGSLYRADLDGVGVKALLETSEKITAVSLDVLDKRLFWIQYNREGSNSLICSCDYDGGSVHISKHPTQHNLFAMSLFGDRIFYSTWKMKTIWIANKHTGKDMVRINLHSSFVPLGELKVVHPLAQPKAEDDTWEPEQKLCKLRKGNCSSTVCGQDLQSHLCMCAEGYALSRDRKYCEDVNECAFWNHGCTLGCKNTPGSYYCTCPVGFVLLPDGKRCHQLVSCPRNVSECSHDCVLTSEGPLCFCPEGSVLERDGKTCSGCSSPDNGGCSQLCVPLSPVSWECDCFPGYDLQLDEKSCAASGPQPFLLFANSQDIRHMHFDGTDYGTLLSQQMGMVYALDHDPVENKIYFAHTALKWIERANMDGSQRERLIEEGVDVPEGLAVDWIGRRFYWTDRGKSLIGRSDLNGKRSKIITKENISQPRGIAVHPMAKRLFWTDTGINPRIESSSLQGLGRLVIASSDLIWPSGITIDFLTDKLYWCDAKQSVIEMANLDGSKRRRLTQNDVGHPFAVAVFEDYVWFSDWAMPSVMRVNKRTGKDRVRLQGSMLKPSSLVVVHPLAKPGADPCLYQNGGCEHICKKRLGTAWCSCREGFMKASDGKTCLALDGHQLLAGGEVDLKNQVTPLDILSKTRVSEDNITESQHMLVAEIMVSDQDDCAPVGCSMYARCISEGEDATCQCLKGFAGDGKLCSDIDECEMGVPVCPPASSKCINTEGGYVCRCSEGYQGDGIHCLDIDECQLGEHSCGENASCTNTEGGYTCMCAGRLSEPGLICPDSTPPPHLREDDHHYSVRNSDSECPLSHDGYCLHDGVCMYIEALDKYACNCVVGYIGERCQYRDLKWWELRHAGHGQQQKVIVVAVCVVVLVMLLLLSLWGAHYYRTQKLLSKNPKNPYEESSRDVRSRRPADTEDGMSSCPQPWFVVIKEHQDLKNGGQPVAGEDGQAADGSMQPTSWRQEPQLCGMGTEQGCWIPVSSDKGSCPQVMERSFHMPSYGTQTLEGGVEKPHSLLSANPLWQQRALDPPHQMELTQ", "Fold Change, Decreased Expression from Baseline to Day 28": "−1.7729"},
      {"molecule": "CLEC4G (protein, UniProt Q6UXB4 1-293, looked up) C-type lectin domain family 4 …: MDTTRYSKWGGSSEEVPGGPWGRWVHWSRRPLFLALAVLVTTVLWAVILSILLSKASTERAALLDGHDLLRTNASKQTAALGALKEEVGDCHSCCSGTQAQLQTTRAELGEAQAKLMEQESALRELRERVTQGLAEAGRGREDVRTELFRALEAVRLQNNSCEPCPTSWLSFEGSCYFFSVPKTTWAAAQDHCADASAHLVIVGGLDEQGFLTRNTRGRGYWLGLRAVRHLGKVQGYQWVDGVSLSFSHWNQGEPNDAWGRENCVMMLHTGLWNDAPCDSEKDGWICEKRHNC", "Fold Change, Decreased Expression from Baseline to Day 28": "−1.1865"},
      {"molecule": "SEMA7A (protein, UniProt O75326 45-648, looked up) Semaphorin-7A: QGHLRSGPRIFAVWKGHVGQDRVDFGQTEPHTVLFHEPGSSSVWVGGRGKVYLFDFPEGKNASVRTVNIGSTKGSCLDKRDCENYITLLERRSEGLLACGTNARHPSCWNLVNGTVVPLGEMRGYAPFSPDENSLVLFEGDEVYSTIRKQEYNGKIPRFRRIRGESELYTSDTVMQNPQFIKATIVHQDQAYDDKIYYFFREDNPDKNPEAPLNVSRVAQLCRGDQGGESSLSVSKWNTFLKAMLVCSDAATNKNFNRLQDVFLLPDPSGQWRDTRVYGVFSNPWNYSAVCVYSLGDIDKVFRTSSLKGYHSSLPNPRPGKCLPDQQPIPTETFQVADRHPEVAQRVEPMGPLKTPLFHSKYHYQKVAVHRMQASHGETFHVLYLTTDRGTIHKVVEPGEQEHSFAFNIMEIQPFRRAAAIQTMSLDAERRKLYVSSQWEVSQVPLDLCEVYGGGCHGCLMSRDPYCGWDQGRCISIYSSERSVLQSINPAEPHKECPNPKPDKAPLQKVSLAPNSRYYLSCPMESRHATYSWRHKENVEQSCEPGHQSPNCILFIENLTAQQYGHYFCEAQEGSYFREAQHWQLLPEDGIMAEHLLGHACALA", "Fold Change, Decreased Expression from Baseline to Day 28": "−1.1335"},
      {"molecule": "LYVE1 (protein, UniProt Q9Y5Y7 20-322, looked up) Lymphatic vessel endothelial …: LVQGSLRAEELSIQVSCRIMGITLVSKKANQQLNFTEAKEACRLLGLSLAGKDQVETALKASFETCSYGWVGDGFVVISRISPNPKCGKNGVGVLIWKVPVSRQFAAYCYNSSDTWTNSCIPEIITTKDPIFNTQTATQTTEFIVSDSTYSVASPYSTIPAPTTTPPAPASTSIPRRKKLICVTEVFMETSTMSTETEPFVENKAAFKNEAAGFGGVPTALLVLALLFFGAAAGLGFCYVKRYVKAFPFTNKNQQKEMIETKVVKEEKANDSNPNEESKKTDKNPEESKSPSKTTVRCLEAEV", "Fold Change, Decreased Expression from Baseline to Day 28": "−1.227"},
      {"molecule": "DNER (protein, UniProt Q8NFT8 35-737, looked up) Delta and Notch-like …: NPVPAAPLSAPGPCAAQPCRNGGVCTSRPEPDPQHPAPAGEPGYSCTCPAGISGANCQLVADPCASNPCHHGNCSSSSSSSSDGYLCICNEGYEGPNCEQALPSLPATGWTESMAPRQLQPVPATQEPDKILPRSQATVTLPTWQPKTGQKVVEMKWDQVEVIPDIACGNASSNSSAGGRLVSFEVPQNTSVKIRQDATASLILLWKVTATGFQQCSLIDGRSVTPLQASGGLVLLEEMLALGNNHFIGFVNDSVTKSIVALRLTLVVKVSTCVPGESHANDLECSGKGKCTTKPSEATFSCTCEEQYVGTFCEEYDACQRKPCQNNASCIDANEKQDGSNFTCVCLPGYTGELCQSKIDYCILDPCRNGATCISSLSGFTCQCPEGYFGSACEEKVDPCASSPCQNNGTCYVDGVHFTCNCSPGFTGPTCAQLIDFCALSPCAHGTCRSVGTSYKCLCDPGYHGLYCEEEYNECLSAPCLNAATCRDLVNGYECVCLAEYKGTHCELYKDPCANVSCLNGATCDSDGLNGTCICAPGFTGEECDIDINECDSNPCHHGGSCLDQPNGYNCHCPHGWVGANCEIHLQWKSGHMAESLTNMPRHSLYIIIGALCVAFILMLIILIVGICRISRIEYQGSSRPAYEEFYNCRSIDSEFSNAIASIRHARFGKKSRPAMYDVSPIAYEDYSPDDKPLVTLIKTKDL", "Fold Change, Increased Expression from Baseline to Day 28": 1.2957},
      {"molecule": "VEGFC (protein, UniProt P49767 112-227, looked up) Vascular endothelial growth …: AHYNTEILKSIDNEWRKTQCMPREVCIDVGKEFGVATNTFFKPPCVSVYRCGGCCNSEGLQCMNTSTSYLSKTLFEITVPLSQGPKPVTISFANHTSCRCMSKLDVYRQVHSIIRR", "Fold Change, Decreased Expression from Baseline to Day 28": "−1.1727"},
      {"molecule": "GZMH (protein, UniProt P20718 21-246, looked up) Granzyme H: IIGGHEAKPHSRPYMAFVQFLQEKSRKRCGGILVRKDFVLTAAHCQGSSINVTLGAHNIKEQERTQQFIPVKRPIPHPAYNPKNFSNDIMLLQLERKAKWTTAVRPLRLPSSKAQVKPGQLCSVAGWGYVSMSTLATTLQEVLLTVQKDCQCERLFHGNYSRATEICVGDPKKTQTGFKGDSGGPLVCKDVAQGILSYGNKKGTPPGVYIKVSHFLPWIKRTMKRL", "Fold Change, Decreased Expression from Baseline to Day 28": "−1.494"},
      {"molecule": "FADD (protein, UniProt Q13158 1-208, looked up) FAS-associated death domain …: MDPFLVLLHSVSSSLSSSELTELKFLCLGRVGKRKLERVQSGLDLFSMLLEQNDLEPGHTELLRELLASLRRHDLLRRVDDFEAGAAAGAAPGEEDLCAAFNVICDNVGKDWRRLARQLKVSDTKIDSIEDRYPRNLTERVRESLRIWKNTEKENATVAHLVGALRSCQMNLVADLVQEVQQARDLQNRSGAMSPMSWNSDASTSEAS", "Fold Change, Decreased Expression from Baseline to Day 28": "−1.546"}
    ]}
  ]
}
